Experimental findings from paper PMC5027247 (2016) are described below.

Numbering of substitutions follows the chain as printed. Like-named read-outs stand apart in the source and are kept apart here.

Common to all, as to assay: ITC
For orientation: ITC needs no label: the signal is the heat of the interaction.

Test [1] has as its target T1, TBK1 CTD(E696K) (human, UniProt Q9UHD2 677-729, E696K).
T1 sequence: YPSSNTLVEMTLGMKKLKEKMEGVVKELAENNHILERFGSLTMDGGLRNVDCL

Test [2] has as its target T2, TBK1 CTD V700Q (human, UniProt Q9UHD2 677-729, V700Q).
T2 sequence: T1 sequence with K20E, V24Q

Test [3] concerns the target T1, TBK1 CTD(E696K). This is another data set of the same source.
In test [4] the target is T2, TBK1 CTD V700Q. The source holds these as a separate data set.
The target in test [5] is T3, OPTN(26–119) E50K (human, UniProt Q96CV9 26-119, E50K).
Test [6] deals with T3, OPTN(26–119) E50K. The source holds these as a separate data set.
Target sequence in this assay (Q96CV9 26-119 E50K): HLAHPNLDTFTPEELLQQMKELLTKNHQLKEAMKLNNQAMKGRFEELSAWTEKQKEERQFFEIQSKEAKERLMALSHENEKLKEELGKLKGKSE

As for SSDNMQHAYWELKREMSNLHLVTQVQAELLRKLKTSTAIK (domain or fragment) [NAP1 TBD (residues 215–254)], the Kd is 660 nM with TBK1 CTD(E696K) [1], 6060 nM in the test with TBK1 CTD V700Q [2], 660 nM with TBK1 CTD(E696K) [3] and 6060 nM with TBK1 CTD V700Q [4].

B1: TBK1 CTD (residues 677–729) (domain or fragment)
chain: T1 sequence with K20E
In the case of B1, the Kd with OPTN(26–119) E50K [5] and in the test with OPTN(26–119) E50K [6] was 100 nM throughout.

A word on the Kd: it is the free concentration of one partner at which half of the binding sites on the other are occupied at equilibrium, for simple one-to-one binding. A high value points to lower affinity.
